Experiments:
Experiment in all cases: Kinase Profiling Assay
Type in all cases: biochemical
Settings in all cases: 100 μM peptide
Pim-3(h) = Pim-3(h) (Homo sapiens, UniProt Q86V86)
Procedure, shortened: (§1)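 First, MK2 inhibitor peptides were applied to a panel of 266 human kinases; then each kinase's activity was measured in duplicate to assess off-target inhibition.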

MLCK(h) = MLCK(h) (Homo sapiens, UniProt Q9H1R3)
Procedure, shortened: as §1

GCK(h) = target: T1, GCK(h) (Homo sapiens, UniProt Q12851)
T1 construct: purchased Millipore
T1 sequence (Q12851 1-820): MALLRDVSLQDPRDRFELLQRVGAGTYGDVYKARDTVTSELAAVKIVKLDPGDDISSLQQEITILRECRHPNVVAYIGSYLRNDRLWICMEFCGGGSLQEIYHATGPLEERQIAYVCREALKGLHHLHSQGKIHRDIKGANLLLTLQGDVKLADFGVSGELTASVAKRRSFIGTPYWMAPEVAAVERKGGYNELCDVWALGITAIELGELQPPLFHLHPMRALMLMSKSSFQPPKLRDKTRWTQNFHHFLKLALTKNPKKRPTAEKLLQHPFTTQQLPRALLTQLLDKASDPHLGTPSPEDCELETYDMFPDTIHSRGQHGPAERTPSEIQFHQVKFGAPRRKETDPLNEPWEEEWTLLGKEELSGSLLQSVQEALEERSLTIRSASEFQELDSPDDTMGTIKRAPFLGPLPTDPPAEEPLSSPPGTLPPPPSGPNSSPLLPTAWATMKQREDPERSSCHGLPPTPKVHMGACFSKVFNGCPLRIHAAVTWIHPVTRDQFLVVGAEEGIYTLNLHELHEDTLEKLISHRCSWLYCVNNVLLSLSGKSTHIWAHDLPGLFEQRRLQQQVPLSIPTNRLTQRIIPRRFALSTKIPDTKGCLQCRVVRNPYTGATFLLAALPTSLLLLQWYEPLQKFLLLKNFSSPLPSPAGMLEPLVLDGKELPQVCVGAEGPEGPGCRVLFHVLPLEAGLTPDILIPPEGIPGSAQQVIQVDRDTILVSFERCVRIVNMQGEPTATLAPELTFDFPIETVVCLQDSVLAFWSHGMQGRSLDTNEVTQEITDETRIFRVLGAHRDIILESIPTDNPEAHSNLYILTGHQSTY
Procedure, shortened: as §1

ALK(h) = ALK(h) (Homo sapiens, UniProt Q9UM73)
Procedure, shortened: as §1

CSK(h) = CSK(h) (Homo sapiens, UniProt P41240)
Procedure, shortened: as §1

AMPKα2(h) = AMPKα2(h) (Homo sapiens, UniProt P54646)
Procedure, shortened: as §1

MSSK1(h) = MSSK1(h) (Homo sapiens, UniProt Q9UPE1)
Procedure, shortened: as §1

FGFR1(h) = FGFR1(h) (Homo sapiens, UniProt P11362)
Procedure, shortened: as §1

DAPK1(h) = DAPK1(h) (Homo sapiens, UniProt P53355)
Procedure, shortened: as §1

NLK(h) = target: T2, NLK(h) (Homo sapiens, UniProt Q9UBE8)
T2 sequence (Q9UBE8 1-527): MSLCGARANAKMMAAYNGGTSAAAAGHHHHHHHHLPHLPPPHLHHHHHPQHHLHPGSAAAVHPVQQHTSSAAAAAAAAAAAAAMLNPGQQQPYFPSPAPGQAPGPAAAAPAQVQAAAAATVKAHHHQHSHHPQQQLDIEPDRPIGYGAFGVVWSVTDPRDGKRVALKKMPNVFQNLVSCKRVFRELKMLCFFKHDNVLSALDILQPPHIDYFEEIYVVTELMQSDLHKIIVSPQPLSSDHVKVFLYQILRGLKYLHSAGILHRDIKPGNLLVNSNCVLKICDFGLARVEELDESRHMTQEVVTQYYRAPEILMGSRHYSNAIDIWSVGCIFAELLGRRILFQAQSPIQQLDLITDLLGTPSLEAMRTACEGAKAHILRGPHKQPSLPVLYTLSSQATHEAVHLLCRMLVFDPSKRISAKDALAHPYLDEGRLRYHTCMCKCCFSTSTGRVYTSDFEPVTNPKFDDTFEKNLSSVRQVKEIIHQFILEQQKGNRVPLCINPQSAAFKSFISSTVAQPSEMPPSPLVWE
Procedure, shortened: as §1

DRAK1(h) = target: T3, DRAK1(h) (Homo sapiens, UniProt Q9UEE5)
T3 sequence (Q9UEE5 1-414): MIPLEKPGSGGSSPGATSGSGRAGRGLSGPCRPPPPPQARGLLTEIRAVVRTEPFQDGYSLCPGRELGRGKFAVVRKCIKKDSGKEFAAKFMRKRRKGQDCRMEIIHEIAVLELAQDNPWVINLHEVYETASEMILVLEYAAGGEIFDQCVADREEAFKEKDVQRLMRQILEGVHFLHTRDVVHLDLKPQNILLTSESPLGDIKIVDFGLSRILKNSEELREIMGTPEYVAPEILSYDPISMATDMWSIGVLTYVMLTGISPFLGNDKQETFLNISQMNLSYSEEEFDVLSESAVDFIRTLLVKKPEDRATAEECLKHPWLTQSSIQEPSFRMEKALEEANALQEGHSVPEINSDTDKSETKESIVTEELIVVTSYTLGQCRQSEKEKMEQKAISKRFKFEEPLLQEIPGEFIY
Procedure, shortened: as §1

TLK2(h) = TLK2(h) (Homo sapiens, UniProt Q86UE8)
Procedure, shortened: as §1

Sequence of FGFR1(h) (P11362 22-822): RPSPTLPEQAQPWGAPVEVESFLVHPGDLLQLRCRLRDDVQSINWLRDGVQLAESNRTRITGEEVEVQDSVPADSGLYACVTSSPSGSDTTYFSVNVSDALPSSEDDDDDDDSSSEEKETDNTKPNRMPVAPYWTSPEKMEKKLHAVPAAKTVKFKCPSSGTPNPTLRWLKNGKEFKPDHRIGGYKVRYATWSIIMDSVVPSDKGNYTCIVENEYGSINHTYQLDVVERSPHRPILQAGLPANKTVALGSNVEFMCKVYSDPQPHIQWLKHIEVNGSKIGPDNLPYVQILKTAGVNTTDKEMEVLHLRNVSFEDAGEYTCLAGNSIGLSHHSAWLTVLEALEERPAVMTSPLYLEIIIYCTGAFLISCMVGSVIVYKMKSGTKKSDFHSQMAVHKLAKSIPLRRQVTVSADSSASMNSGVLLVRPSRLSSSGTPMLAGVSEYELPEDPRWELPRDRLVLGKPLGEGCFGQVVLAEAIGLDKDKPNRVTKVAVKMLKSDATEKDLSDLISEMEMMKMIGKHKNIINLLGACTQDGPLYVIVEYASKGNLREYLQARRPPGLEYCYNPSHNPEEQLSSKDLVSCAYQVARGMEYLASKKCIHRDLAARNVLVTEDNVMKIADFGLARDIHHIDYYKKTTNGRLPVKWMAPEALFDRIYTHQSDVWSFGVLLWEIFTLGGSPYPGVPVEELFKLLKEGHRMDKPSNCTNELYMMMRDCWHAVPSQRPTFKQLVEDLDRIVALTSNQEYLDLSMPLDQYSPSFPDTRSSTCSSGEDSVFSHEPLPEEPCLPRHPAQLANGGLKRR
Sequence of MSSK1(h) (Q9UPE1 whole entry): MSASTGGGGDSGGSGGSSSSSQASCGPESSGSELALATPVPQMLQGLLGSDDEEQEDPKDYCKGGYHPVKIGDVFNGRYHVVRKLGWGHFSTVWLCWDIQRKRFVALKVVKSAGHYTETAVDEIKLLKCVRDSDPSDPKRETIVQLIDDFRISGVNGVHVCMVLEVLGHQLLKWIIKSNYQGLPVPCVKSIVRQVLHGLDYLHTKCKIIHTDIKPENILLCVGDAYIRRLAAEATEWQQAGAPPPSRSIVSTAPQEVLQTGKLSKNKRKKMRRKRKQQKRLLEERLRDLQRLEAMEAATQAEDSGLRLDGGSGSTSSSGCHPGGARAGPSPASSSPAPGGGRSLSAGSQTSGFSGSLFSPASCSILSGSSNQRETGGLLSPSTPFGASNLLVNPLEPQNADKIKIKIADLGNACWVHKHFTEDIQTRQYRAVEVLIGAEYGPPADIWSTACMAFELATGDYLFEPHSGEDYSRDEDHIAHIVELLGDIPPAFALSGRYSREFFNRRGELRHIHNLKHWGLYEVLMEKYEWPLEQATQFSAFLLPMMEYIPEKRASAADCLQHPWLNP
Sequence of TLK2(h) (Q86UE8 whole entry): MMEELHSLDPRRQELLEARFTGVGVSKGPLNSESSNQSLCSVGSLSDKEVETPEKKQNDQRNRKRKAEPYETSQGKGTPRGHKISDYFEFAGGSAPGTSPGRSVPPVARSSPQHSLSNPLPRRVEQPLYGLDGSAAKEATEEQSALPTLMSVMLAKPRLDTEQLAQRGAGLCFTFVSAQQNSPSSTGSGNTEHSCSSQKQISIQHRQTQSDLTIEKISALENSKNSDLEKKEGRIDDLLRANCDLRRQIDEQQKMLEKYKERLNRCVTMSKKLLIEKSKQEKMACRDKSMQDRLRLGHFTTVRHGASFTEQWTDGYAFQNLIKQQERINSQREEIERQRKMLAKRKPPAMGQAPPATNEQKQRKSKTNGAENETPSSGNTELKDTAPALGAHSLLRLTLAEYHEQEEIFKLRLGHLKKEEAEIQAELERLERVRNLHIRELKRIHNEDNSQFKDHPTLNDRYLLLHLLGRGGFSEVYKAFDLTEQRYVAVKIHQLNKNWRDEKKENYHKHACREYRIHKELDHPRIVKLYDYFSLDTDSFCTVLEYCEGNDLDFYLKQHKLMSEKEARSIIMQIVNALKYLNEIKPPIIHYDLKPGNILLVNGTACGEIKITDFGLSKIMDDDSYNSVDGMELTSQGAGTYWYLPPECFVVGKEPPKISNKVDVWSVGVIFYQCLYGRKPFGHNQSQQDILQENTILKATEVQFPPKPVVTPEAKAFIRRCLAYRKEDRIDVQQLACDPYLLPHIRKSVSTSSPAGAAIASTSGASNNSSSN
Sequence of ALK(h) (Q9UM73 19-1620): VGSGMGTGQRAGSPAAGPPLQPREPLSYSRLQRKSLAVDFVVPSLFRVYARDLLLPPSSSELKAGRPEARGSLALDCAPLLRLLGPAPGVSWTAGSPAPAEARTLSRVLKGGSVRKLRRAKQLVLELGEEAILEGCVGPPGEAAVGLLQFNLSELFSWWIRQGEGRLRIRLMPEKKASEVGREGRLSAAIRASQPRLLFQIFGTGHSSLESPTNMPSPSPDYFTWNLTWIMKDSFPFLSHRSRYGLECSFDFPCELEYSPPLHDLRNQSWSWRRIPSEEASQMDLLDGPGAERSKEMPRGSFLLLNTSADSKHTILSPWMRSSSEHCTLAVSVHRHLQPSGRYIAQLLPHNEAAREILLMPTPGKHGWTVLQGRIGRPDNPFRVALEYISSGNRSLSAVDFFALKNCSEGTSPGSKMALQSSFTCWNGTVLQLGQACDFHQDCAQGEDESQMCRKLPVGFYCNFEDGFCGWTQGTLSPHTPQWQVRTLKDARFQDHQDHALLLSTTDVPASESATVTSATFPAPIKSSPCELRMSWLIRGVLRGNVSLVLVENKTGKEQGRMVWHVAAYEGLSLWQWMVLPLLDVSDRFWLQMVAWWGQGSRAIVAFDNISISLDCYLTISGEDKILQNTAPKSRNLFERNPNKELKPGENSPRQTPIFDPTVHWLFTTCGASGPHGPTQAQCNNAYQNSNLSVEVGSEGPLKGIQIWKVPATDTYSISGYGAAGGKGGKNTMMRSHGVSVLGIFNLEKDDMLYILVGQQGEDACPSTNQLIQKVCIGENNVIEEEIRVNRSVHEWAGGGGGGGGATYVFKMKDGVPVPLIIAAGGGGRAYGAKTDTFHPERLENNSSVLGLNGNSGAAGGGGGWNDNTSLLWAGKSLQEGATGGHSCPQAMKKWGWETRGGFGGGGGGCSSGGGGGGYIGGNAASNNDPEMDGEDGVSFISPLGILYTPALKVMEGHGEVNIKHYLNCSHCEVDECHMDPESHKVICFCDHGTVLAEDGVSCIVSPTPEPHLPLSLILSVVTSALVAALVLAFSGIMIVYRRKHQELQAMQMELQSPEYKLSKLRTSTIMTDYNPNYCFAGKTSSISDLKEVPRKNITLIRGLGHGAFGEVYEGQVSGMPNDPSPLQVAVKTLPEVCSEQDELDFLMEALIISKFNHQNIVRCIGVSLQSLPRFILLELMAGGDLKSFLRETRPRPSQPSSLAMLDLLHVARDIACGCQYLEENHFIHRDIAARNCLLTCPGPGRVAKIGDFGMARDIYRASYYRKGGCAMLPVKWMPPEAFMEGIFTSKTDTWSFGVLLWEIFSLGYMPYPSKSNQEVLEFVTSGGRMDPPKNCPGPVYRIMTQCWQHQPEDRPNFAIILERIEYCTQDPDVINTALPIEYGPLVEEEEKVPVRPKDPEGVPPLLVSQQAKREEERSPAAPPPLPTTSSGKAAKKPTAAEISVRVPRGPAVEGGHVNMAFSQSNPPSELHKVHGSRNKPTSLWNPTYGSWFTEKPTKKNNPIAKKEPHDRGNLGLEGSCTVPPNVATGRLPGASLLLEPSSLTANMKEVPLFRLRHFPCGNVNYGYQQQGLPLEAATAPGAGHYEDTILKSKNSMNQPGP
Sequence of CSK(h) (P41240 whole entry): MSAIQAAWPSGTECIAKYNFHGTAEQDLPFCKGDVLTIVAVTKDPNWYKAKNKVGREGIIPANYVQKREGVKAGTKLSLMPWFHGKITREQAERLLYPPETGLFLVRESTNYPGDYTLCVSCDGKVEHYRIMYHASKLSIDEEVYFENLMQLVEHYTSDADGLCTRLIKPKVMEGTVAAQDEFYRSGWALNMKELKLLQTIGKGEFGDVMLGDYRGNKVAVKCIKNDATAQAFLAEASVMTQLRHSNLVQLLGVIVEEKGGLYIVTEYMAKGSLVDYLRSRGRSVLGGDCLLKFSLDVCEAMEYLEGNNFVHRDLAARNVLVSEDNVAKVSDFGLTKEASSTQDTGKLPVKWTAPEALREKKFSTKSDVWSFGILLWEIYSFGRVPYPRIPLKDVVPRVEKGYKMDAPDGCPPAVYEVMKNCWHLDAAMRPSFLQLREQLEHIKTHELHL

Sequence	Pim-3(h) % activity (Pim-3(h)) [%]	MLCK(h) % activity (MLCK(h)) [%]	GCK(h) % activity (GCK(h)) [%]	ALK(h) % activity (ALK(h)) [%]	CSK(h) % activity (CSK(h)) [%]	AMPKα2(h) % activity (AMPKα2(h)) [%]	MSSK1(h) % activity (MSSK1(h)) [%]	FGFR1(h) % activity (FGFR1(h)) [%]	DAPK1(h) % activity (DAPK1(h)) [%]	NLK(h) % activity (NLK(h)) [%]	DRAK1(h) % activity (DRAK1(h)) [%]	TLK2(h) % activity (TLK2(h)) [%]
FAKLAARLYRKALARQLGVAA [MMI-0300]	80	2	70	19	49	54	77	55	46	87	14	–
KAFAKLAARLYRKALARQLGVAA [MMI-0400]	80	1	66	16	16	58	75	59	36	90	14	151
YARAAARQARAKALNRQLGVA (Mammalian) [MMI-0200]	94	–	99	95	33	88	100	97	–	–	34	129
HRRIKAWLKKIKALARQLGVAA (Mammalian) [MMI-0500]	37	0	30	12	2	9	22	18	0	19	8	133
